Experimental findings from article PMC6738421 are described below.

Test [1] concerns the target Arginyl-tRNA-protein transferase Ate1, isoform Ate1-1 (mouse) (UniProt Q9Z2A5).
Test [2] addresses Arginyl-tRNA-protein transferase Ate1, isoform Ate1-3 (mouse) (UniProt Q9Z2A5).

BSA, sequence (P02769 25-607): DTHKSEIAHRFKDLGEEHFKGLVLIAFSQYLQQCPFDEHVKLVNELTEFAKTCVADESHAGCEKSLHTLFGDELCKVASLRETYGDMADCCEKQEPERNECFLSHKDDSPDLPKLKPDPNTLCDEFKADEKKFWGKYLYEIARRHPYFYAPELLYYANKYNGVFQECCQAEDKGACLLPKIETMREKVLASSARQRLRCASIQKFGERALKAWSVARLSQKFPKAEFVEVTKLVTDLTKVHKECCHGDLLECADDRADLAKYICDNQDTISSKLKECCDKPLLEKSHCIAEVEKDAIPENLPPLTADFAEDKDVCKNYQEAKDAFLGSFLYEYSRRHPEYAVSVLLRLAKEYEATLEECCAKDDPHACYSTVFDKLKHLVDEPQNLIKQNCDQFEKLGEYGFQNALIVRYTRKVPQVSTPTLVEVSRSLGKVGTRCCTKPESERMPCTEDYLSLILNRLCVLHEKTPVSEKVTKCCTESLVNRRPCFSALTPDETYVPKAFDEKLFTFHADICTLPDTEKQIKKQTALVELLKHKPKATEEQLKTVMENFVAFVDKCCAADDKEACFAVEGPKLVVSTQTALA
Arginyl-tRNA-protein transferase Ate1, isoform Ate1-3 (mouse), sequence (Q9Z2A5 other isoform, or with tags, fused parts or gaps): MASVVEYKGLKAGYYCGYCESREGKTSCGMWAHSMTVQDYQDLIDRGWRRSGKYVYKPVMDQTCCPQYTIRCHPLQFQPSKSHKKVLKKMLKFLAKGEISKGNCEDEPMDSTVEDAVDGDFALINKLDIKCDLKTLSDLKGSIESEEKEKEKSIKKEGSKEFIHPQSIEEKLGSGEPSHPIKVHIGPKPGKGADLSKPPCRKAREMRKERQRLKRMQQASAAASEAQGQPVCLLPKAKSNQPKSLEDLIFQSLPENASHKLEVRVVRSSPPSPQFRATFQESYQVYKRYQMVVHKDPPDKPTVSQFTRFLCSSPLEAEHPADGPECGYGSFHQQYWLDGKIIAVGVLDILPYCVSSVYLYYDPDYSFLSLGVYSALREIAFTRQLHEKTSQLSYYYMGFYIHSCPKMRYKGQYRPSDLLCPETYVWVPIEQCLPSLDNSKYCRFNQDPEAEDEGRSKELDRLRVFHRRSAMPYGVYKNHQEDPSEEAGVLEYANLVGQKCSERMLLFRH
Arginyl-tRNA-protein transferase Ate1, isoform Ate1-1 (mouse), sequence (Q9Z2A5 whole entry, canonical isoform): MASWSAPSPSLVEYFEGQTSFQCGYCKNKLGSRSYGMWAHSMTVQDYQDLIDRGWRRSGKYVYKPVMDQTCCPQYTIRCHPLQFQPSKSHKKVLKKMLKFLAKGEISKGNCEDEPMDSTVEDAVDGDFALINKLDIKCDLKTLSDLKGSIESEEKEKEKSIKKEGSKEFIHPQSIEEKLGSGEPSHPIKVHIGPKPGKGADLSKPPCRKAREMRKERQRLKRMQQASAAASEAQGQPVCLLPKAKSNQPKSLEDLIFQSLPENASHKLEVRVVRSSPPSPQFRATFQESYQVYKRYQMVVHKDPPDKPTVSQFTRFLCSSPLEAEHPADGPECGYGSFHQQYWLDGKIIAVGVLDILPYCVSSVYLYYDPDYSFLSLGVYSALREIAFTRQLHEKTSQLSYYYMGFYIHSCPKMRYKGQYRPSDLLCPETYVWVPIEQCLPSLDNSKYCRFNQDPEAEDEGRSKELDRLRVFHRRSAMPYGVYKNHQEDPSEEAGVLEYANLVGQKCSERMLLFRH

As to “BSA (from UniProt P02769 25-607) (natural protein)”, the Km of arginylation of the substrate by Ate1-1 (enzyme kinetics by ITC) in test [1] was found to be 33.2 µM. The Km of arginylation of the substrate by Ate1-3 (enzyme kinetics by ITC) in test [2] came to 52.5 µM.
